Measured values taken from paper doi:10.1101/2024.07.10.602929.
One block for each substance: values may come before it.

Columns and labels:
Assay in all cases: biolayer interferometry, immobilised biotin-peptide
GABARAP = GABARAP (UniProt O95166); details: reference: unphosphorylated LIR1 peptide
LC3A = LC3A (UniProt Q9H492); details: reference: unphosphorylated LIR1 peptide; sites Y1092
LC3B = LC3B (UniProt Q9GZQ8); details: reference: unphosphorylated LIR1 peptide; sites Y1092
GABARAPL2 = GABARAPL2 (UniProt P60520); details: reference: unphosphorylated LIR1 peptide; sites Y1092
GABARAPL1 = GABARAPL1 (UniProt Q9H0R8); details: reference: unphosphorylated LIR1 peptide; sites Y1092

fold change (GABARAP; sites S1081): stronger
Substance: EGFR LIR1, 1076-1099 (from UniProt P00533) pS1081 LIR1 peptide

fold change (GABARAP; sites S1081,T1085): stronger
Substance: EGFR LIR1, 1076-1099 (from UniProt P00533) pS1081/pT1085 LIR1 peptide

fold change (GABARAP; sites T1085): stronger
Substance: EGFR LIR1, 1076-1099 (from UniProt P00533) pT1085 LIR1 peptide

binding against the reference (LC3A): same | binding against the reference (LC3B): same | binding against the reference (GABARAPL2): same | binding against the reference (GABARAP; sites Y1092): same | binding against the reference (GABARAPL1): same
Substance: EGFR LIR1, 1076-1099 (from UniProt P00533) pY1092 LIR1 peptide
